According to patent US20140274782A1, “AFFINITY REAGENTS AND METHODS FOR DETECTION, PURIFICATION, AND PROTEOMIC ANALYSIS OF METHYLATED PROTEINS” (The Board of Trustees of the Leland Stanford Junior …, priority 2013, published 2014):

T1: G9a and GLP (Homo sapiens, UniProt Q96KQ7+Q9H9B1)
T1 sequence (Q96KQ7 2-1210 limits assumed): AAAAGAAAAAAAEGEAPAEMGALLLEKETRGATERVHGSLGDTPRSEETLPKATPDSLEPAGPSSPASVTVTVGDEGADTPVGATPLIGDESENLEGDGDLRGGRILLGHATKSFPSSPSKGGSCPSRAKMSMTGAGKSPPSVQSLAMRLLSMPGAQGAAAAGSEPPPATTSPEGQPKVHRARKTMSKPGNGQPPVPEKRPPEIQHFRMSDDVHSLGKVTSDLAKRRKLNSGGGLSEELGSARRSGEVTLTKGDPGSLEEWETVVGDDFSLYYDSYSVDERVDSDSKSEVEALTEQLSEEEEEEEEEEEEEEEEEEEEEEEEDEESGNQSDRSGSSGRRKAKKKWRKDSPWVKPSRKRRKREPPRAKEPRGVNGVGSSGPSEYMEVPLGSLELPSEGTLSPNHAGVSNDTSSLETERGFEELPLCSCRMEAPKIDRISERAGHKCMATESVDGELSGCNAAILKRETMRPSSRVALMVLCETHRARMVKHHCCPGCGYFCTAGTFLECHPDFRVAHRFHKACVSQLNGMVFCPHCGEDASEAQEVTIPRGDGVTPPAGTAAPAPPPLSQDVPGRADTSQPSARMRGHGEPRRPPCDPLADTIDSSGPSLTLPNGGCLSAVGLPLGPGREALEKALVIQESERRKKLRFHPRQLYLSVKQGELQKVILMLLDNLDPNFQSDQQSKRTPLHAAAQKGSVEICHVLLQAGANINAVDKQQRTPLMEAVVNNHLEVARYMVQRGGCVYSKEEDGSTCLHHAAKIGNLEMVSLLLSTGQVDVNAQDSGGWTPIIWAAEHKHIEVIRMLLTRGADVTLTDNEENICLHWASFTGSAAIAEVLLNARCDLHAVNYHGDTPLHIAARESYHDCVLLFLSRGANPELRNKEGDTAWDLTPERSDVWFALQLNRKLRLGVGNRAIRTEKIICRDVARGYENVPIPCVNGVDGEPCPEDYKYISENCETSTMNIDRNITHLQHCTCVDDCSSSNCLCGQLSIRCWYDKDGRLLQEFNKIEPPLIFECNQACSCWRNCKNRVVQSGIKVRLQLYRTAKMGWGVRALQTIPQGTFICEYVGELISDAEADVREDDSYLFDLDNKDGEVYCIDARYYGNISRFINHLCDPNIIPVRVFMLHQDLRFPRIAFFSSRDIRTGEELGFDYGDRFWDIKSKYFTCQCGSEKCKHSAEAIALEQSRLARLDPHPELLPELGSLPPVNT
T1 sequence (Q9H9B1 2-1298 limits assumed): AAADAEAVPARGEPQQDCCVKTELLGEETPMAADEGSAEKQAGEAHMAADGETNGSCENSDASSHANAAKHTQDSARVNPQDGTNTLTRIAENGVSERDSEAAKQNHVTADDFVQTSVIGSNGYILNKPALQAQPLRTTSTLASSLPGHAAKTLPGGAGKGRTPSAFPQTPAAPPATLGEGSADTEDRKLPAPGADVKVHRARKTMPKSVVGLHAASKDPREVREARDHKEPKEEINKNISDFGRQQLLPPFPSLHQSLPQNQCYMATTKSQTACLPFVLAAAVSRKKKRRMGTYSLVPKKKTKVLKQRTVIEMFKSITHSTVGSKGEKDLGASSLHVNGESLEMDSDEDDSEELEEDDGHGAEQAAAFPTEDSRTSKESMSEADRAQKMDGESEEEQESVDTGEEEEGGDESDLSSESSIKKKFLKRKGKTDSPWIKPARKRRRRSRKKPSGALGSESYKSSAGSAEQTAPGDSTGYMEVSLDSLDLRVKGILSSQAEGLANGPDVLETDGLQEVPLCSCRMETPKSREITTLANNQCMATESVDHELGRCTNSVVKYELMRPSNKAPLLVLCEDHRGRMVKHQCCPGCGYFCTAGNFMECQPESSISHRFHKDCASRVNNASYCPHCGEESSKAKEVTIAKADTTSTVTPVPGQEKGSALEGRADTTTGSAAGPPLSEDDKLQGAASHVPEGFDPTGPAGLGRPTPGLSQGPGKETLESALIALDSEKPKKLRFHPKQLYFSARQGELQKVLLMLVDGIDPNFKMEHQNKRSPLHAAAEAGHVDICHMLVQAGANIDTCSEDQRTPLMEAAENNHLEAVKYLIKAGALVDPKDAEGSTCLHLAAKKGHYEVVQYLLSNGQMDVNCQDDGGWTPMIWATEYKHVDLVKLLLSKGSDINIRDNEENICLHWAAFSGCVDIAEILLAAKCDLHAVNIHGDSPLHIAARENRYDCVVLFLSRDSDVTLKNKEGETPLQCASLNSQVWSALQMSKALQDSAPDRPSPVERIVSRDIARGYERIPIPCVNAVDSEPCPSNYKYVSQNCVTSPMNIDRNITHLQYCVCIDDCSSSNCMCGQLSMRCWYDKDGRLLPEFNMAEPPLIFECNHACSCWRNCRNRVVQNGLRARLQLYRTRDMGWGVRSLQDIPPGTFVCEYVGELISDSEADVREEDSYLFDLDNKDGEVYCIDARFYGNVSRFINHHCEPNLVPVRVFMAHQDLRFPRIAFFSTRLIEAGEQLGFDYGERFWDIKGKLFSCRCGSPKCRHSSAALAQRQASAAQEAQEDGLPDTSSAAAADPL


Legend:
G9a and GLP = target: T1, G9a and GLP; assay: Triple SILAC pull-down after UNC0638 treatment of 293T cells, DMSO/UNC0638 ratio of protein captured by 3×MBT; assay type: cell-based; design: cells were treated for 24 hours with UNC0638 at 2.5 μM or DMSO vehicle control; endogenous in cells; host or cells: HEK 293T; settings: for Relative to UNC0638 UNC Heavy / Relative to UNC0638 UNC Light: SILAC ratio DMSO/UNC0638 of protein pulled down with 3xMBT; for Relative to UNC0638 UNC Heavy: UNC0638 in heavy SILAC media; for Relative to UNC0638 UNC Light: UNC0638 in light SILAC media; for Relative to UNC0638 Average: average of UNC Light and UNC Heavy experiments;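 on all read-outs here: mass spectrometry (Q-Exactive) SILAC quantitation, DMSO/UNC0638 ratio computed after subtracting 3×MBTD355N mutant pull-down background, only proteins with at least twofold 3×MBT over mutant signal considered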
3×MBT domain of L3MBTL1 = assay: Triple SILAC pull-down, 3xMBT/3xMBTD355N ratio (cytoplasmic, nuclear and chromatin fractions of 293T cells); assay type: binding, human; settings: SILAC ratio, pull-down 3xMBT vs 3xMBTD355N; for 3xMBT/D355N UNC Heavy: experiment with UNC0638 in heavy SILAC media; for 3xMBT/D355N UNC Light: experiment with UNC0638 in light SILAC media;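 on all read-outs here: proteins quantified with MaxQuant, requiring at least two unique peptides and quantification in both label directions, normalized to the mean of proteins from a digested loading control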

Relative to UNC0638 UNC Heavy (G9a and GLP) | Relative to UNC0638 UNC Light (G9a and GLP) | Relative to UNC0638 Average (G9a and GLP) | Molecule | 3xMBT/D355N UNC Heavy (3×MBT domain of L3MBTL1) | 3xMBT/D355N UNC Light (3×MBT domain of L3MBTL1)
0.14 log base 2 | 0.20 log base 2 | 0.17 log base 2 | U2AF2 (protein, UniProt P26368 2-475, looked up) Splicing factor U2AF 65 kDa …: SDFDEFERQLNENKQERDKENRHRKRSHSRSRSRDRKRRSRSRDRRNRDQRSASRDRRRRSKPLTRGAKEEHGGLIRSPRHEKKKKVRKYWDVPPPGFEHITPMQYKAMQAAGQIPATALLPTMTPDGLAVTPTPVPVVGSQMTRQARRLYVGNIPFGITEEAMMDFFNAQMRLGGLTQAPGNPVLAVQINQDKNFAFLEFRSVDETTQAMAFDGIIFQGQSLKIRRPHDYQPLPGMSENPSVYVPGVVSTVVPDSAHKLFIGGLPNYLNDDQVKELLTSFGPLKAFNLVKDSATGLSKGYAFCEYVDINVTDQAIAGLNGMQLGDKKLLVQRASVGAKNATLVSPPSTINQTPVTLQVPGLMSSQVQMGGHPTEVLCLMNMVLPEELLDDEEYEEIVEDVRDECSKYGLVKSIEIPRPVDGVEVPGCGKIFVEFTSVFDCQKAMQGLTGRKFANRVVVTKYCDPDSYHRRDFW | 2.86 log base 2 | 2.60 log base 2
0.26 log base 2 | 0.09 log base 2 | 0.17 log base 2 | PALLD (protein, UniProt Q8WX93 1-1383, looked up) Palladin: MSGTSSHESFYDSLSDMQEESKNTDFFPGLSAFLSQEEINKSLDLARRAIADSETEDFDSEKEISQIFSTSPASLCEHPSHKETKLGEHASRRPQDNRSTPVQPLAEKQTKSISSPVSKRKPAMSPLLTRPSYIRSLRKAEKRGAKTPSTNVKPKTPHQRKGGPQSQLCDKAANLIEELTSIFKAAKPRNRSPNGESSSPDSGYLSPKNQPSALLSASASQSPMEDQGEMEREVKSPGARHCYQDNQDLAVPHNRKSHPQPHSALHFPAAPRFIQKLRSQEVAEGSRVYLECRVTGNPTPRVRWFCEGKELHNTPDIQIHCEGGDLHTLIIAEAFEDDTGRYTCLATNPSGSDTTSAEVFIEGASSTDSDSESLAFKSRAGAMPQAQKKTTSVSLTIGSSSPKTGVTTAVIQPLSVPVQQVHSPTSYLCRPDGTTTAYFPPVFTKELQNTAVAEGQVVVLECRVRGAPPLQVQWFRQGSEIQDSPDFRILQKKPRSTAEPEEICTLVIAETFPEDAGIFTCSARNDYGSATSTAQLVVTSANTENCSYESMGESNNDHFQHFPPPPPILETSSLELASKKPSEIQQVNNPELGLSRAALQMQFNAAERETNGVHPSRGVNGLINGKANSNKSLPTPAVLLSPTKEPPPLLAKPKLDPLKLQQLQNQIRLEQEAGARQPPPAPRSAPPSPPFPPPPAFPELAACTPPASPEPMSALASRSAPAMQSSGSFNYARPKQFIAAQNLGPASGHGTPASSPSSSSLPSPMSPTPRQFGRAPVPPFAQPFGAEPEAPWGSSSPSPPPPPPPVFSPTAAFPVPDVFPLPPPPPPLPSPGQASHCSSPATRFGHSQTPAAFLSALLPSQPPPAAVNALGLPKGVTPAGFPKKASRTARIASDEEIQGTKDAVIQDLERKLRFKEDLLNNGQPRLTYEERMARRLLGADSATVFNIQEPEEETANQEYKVSSCEQRLISEIEYRLERSPVDESGDEVQYGDVPVENGMAPFFEMKLKHYKIFEGMPVTFTCRVAGNPKPKIYWFKDGKQISPKSDHYTIQRDLDGTCSLHTTASTLDDDGNYTIMAANPQGRISCTGRLMVQAVNQRGRSPRSPSGHPHVRRPRSRSRDSGDENEPIQERFFRPHFLQAPGDLTVQEGKLCRMDCKVSGLPTPDLSWQLDGKPVRPDSAHKMLVRENGVHSLIIEPVTSRDAGIYTCIATNRAGQNSFSLELVVAAKEAHKPPVFIEKLQNTGVADGYPVRLECRVLGVPPPQIFWKKENESLTHSTDRVSMHQDNHGYICLLIQGATKEDAGWYTVSAKNEAGIVSCTARLDVYTQWHQQSQSTKPKKVRPSASRYAALSDQGLDIKAAFQPEANPSHLTLNTALVESEDL | 2.50 log base 2 | 2.31 log base 2
0.11 log base 2 | 0.24 log base 2 | 0.17 log base 2 | RBMX (protein, UniProt P38159 1-391, looked up) RNA-binding motif protein, X …: MVEADRPGKLFIGGLNTETNEKALEAVFGKYGRIVEVLLMKDRETNKSRGFAFVTFESPADAKDAARDMNGKSLDGKAIKVEQATKPSFESGRRGPPPPPRSRGPPRGLRGGRGGSGGTRGPPSRGGHMDDGGYSMNFNMSSSRGPLPVKRGPPPRSGGPPPKRSAPSGPVRSSSGMGGRAPVSRGRDSYGGPPRREPLPSRRDVYLSPRDDGYSTKDSYSSRDYPSSRDTRDYAPPPRDYTYRDYGHSSSRDDYPSRGYSDRDGYGRDRDYSDHPSGGSYRDSYESYGNSRSAPPTRGPPPSYGGSSRYDDYSSSRDGYGGSRDSYSSSRSDLYSSGRDRVGRQERGLPPSMERGYPPPRDSYSSSSRGAPRGGGRGGSRSDRGGGRSRY | 3.98 log base 2 | 4.49 log base 2
